Measured values taken from patent US20180185504A1 (Regeneron, published 2018).

How the values were obtained:
[1] = target: T1, human prolactin receptor (PRLR) on cells (human, UniProt P16471 25-622); assay: cell-based or functional assay
T1 sequence: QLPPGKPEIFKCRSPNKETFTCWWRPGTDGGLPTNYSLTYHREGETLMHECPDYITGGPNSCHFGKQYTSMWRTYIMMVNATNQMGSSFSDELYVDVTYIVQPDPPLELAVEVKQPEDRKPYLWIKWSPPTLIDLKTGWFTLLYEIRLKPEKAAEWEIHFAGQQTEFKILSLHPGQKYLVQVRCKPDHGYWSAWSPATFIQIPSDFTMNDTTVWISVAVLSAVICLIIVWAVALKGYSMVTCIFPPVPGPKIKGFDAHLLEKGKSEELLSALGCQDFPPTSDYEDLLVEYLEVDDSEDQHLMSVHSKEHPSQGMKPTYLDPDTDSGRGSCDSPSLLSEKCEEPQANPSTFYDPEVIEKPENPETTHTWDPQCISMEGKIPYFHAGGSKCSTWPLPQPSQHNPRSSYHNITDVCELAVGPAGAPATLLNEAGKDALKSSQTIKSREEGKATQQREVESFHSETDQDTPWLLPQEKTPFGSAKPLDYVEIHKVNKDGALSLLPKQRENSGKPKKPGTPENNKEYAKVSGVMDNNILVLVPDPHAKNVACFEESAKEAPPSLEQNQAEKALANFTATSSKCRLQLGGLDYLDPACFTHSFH

[2] = target: T2, mouse PRLR with an HA tag on HEK293 cells (mouse, UniProt Q08501 20-608); assay: FACS on HEK293/mPRLR cells
T2 construct: whole, on cells; also called HEK293/mPRLR; rodent PRLR; not shown: HA tag
T2 sequence (looked up): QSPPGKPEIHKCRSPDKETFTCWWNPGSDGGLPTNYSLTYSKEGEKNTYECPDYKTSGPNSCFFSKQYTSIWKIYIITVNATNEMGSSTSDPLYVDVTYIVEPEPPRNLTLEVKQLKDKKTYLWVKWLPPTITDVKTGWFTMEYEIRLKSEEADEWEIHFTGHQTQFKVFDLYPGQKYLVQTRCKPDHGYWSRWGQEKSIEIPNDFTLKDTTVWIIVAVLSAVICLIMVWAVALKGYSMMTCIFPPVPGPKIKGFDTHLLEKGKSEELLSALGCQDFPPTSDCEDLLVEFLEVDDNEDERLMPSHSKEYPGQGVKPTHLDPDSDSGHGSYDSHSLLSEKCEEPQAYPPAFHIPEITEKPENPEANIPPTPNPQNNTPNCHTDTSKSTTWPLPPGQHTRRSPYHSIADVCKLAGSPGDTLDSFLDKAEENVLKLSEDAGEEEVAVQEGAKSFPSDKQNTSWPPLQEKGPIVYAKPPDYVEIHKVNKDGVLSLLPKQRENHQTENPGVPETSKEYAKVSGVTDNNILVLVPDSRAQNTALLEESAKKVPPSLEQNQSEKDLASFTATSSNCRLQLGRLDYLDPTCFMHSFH

[3] = target: T3, hPRLR-mmH (recombinant extracellular domain of hPRLR with a C-terminal myc-myc-hexahistidine tag) (human); assay: H/D exchange MS; hPRLR-mmH bound to H1H6958N2 on NHS agarose beads
T3 construct: the entry includes the myc-myc-His6 tag; also called truncated form of PRLR
T3 chain: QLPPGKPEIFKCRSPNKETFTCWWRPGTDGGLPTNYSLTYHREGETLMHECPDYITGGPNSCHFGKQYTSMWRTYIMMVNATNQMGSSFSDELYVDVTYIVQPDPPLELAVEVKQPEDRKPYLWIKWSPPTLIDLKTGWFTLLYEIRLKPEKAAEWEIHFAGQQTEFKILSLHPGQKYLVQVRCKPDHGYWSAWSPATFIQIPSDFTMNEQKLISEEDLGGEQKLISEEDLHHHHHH

[4] = target: T4, dimeric form of human PRLR (Example 12 ELISA) (human); assay: blocking ELISA: 10 nM dimeric human PRLR premixed with mAb (520 pM to 30 nM), plate-coated human PRL
T4 construct: PRLR'
T4 sequence (P16471 whole entry, looked up): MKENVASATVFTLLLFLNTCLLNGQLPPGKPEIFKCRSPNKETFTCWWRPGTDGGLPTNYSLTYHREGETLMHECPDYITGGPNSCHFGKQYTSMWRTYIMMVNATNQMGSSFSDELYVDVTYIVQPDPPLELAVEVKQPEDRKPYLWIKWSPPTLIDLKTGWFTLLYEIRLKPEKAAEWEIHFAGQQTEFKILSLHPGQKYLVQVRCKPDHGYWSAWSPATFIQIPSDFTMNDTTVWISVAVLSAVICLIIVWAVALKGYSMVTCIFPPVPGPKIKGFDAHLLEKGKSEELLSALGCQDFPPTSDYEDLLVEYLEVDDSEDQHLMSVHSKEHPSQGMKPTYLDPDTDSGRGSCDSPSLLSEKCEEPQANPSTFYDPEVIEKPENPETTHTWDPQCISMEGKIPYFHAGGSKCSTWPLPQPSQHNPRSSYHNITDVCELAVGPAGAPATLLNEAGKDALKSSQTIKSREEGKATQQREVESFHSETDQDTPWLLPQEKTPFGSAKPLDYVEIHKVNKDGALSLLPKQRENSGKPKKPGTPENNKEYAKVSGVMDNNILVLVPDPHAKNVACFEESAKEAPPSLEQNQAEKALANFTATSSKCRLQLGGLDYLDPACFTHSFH
Description: (§1) Dimeric forms of human or cynomolgus monkey (Macaca fascicularis) PRLR and monomeric human PRL were used in this assay. […] After 1-hour incubation, captured PRLR was detected with HRP-conjugated goat anti-Fcγ antibody and visualized with TMB colorimetric substrate by measuring absorbance at 450 nm. […] Mixtures were then added to plates coated with in 1 μg/mL PRL and captured PRLR was detected as described above. Data were analyzed using a four-parameter logistic equation over an 11-point response curve in GraphPad Prism software and IC₅₀ values were calculated.

[5] = target: T5, dimeric form of cynomolgus monkey (Macaca fascicularis) PRLR (Example 12 ELISA) (cynomolgus monkey (Macaca fascicularis)); assay: blocking ELISA: 10 nM dimeric monkey PRLR premixed with mAb (520 pM to 30 nM), plate-coated human PRL
T5 construct: also called monkey PRLR
Description: as §1

[6] = target: T6, hPRLR-mmH (recombinant extracellular domain of hPRLR with a C-terminal myc-myc-hexahistidine tag) (human); assay: H/D exchange; hPRLR-mmH captured on H1H6958N2 agarose beads
T6 construct: also called truncated form of PRLR
T6 chain: T3 chain

[7] = target: T4, dimeric form of human PRLR (Example 12 …); assay: blocking ELISA: 10 nM dimeric human PRLR premixed with ADC (520 pM to 30 nM), plate-coated human PRL
Description: as §1

[8] = target: T5, dimeric form of cynomolgus monkey …; assay: blocking ELISA: 10 nM dimeric monkey PRLR premixed with ADC (520 pM to 30 nM), plate-coated human PRL
Description: as §1

IL-6R = target: T7, IL-6R (human, UniProt P08887 20-468); assay: flow cytometry, anti-IL-6R antibody on KG-1 cells (endogenous IL-6R), PE anti-human secondary
T7 construct: whole, on cells
T7 sequence (looked up): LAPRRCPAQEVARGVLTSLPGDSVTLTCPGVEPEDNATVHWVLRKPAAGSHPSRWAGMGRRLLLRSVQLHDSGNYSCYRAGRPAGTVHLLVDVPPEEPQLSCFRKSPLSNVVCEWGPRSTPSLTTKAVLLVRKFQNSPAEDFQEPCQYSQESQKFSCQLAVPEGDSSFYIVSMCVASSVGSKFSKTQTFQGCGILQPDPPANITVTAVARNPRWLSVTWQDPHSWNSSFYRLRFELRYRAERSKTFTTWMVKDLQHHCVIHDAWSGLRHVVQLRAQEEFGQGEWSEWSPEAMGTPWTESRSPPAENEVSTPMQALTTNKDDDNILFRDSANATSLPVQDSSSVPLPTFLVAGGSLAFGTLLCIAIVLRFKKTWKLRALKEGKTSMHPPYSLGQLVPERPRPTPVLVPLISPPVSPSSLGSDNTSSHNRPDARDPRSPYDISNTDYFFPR

B1: H1H6958N2 (antibody, human IgG1, V domains shown)
VH: QVQLVESGGGVVQPGRSLRLSCGASGFTFRNYGMQWVRQGPGKGLEWVTLISFDGNDKYYADSVKGRFTISRDNSKNTLFLQMNSLRTEDTAVYYCARGGDFDYWGQGTLVTVSS
VL: DIQMTQSPSSLSASVGDRVTITCRASQDIRKDLGWYQQKPGKAPKRLIYAASSLHSGVPSRFSGSGSGTEFTLTISSLQPEDFATYYCLQHNSYPMYTFGQGTKLEIK
notes: Tested with human IgG1 Fc (H1H); also called HIH6958N2
[1]
  IC50, block of PRL-induced STAT5-luciferase activity (2 nM PRL): 0.4 nM
[2]
  binding result: no binding
[3]
  binding result: binds
[4]
  IC50: 5 nM
[5]
  IC50: 5.8 nM

B2: H1H6958N2 (antibody, V domains shown)
VH: B1 VH
VL: B1 VL
notes: In the H/D exchange experiment the antibody was covalently attached to NHS agarose beads; also called H2M6958N2 (same variable domains, mouse IgG2 Fc); anti-PRLR antibody H1H6958N2
[6]
  binding result: binds

B3: H1H6958N2-DM1 (antibody, human IgG1, V domains shown)
VH: B1 VH
VL: B1 VL
modifications: maytansinoid DM1 conjugated to the antibody through an SMCC linker; conjugation sites not stated
notes: also called H1H6958N2-SMCC-DM1; PRLR ADC
[1]
  IC50, block of PRL-induced STAT5-luciferase activity (2 nM PRL): 0.4 nM
[7]
  IC50: 4.4 nM
[8]
  IC50: 4.2 nM

B4: VV6A9-5 (antibody, V domains shown)
VH: EVQLVESGGGLVQPGRSLRLSCAASGFTFDDYALHWVRQAPGKGLEWVSGVSWNGGRIGYADSVKGRFTISRDNAKNSLFLQMNSLRVEDTALYYCAKGRDAFDIWGQGTLVTVSS
VL: DIQMTQSPSSVSASVGDRVTITCRASQGISSWLAWYQQKPGKAPKLLIYAASSLQSGVPSRFSGSGSGTDFTLTISSLQPEDFATYYCQHAYSFPYTFGQGTKLEIK
IL-6R
  Fold Over Background (FACS MFI above isotype control): 7 fold over background
